Assay results taken from publication PMC8362889.

Target: 2-azido-ATP (2-N3-ATP-biotin-long chain-hydrazone)
Experiment: photoaffinity labeling with 2-azido-ATP
Settings: 2.0 μg of full-length AsphyA protein (∼0.16 μM), wild-type labeling at 100 μM set as 100%, read off a plot
[1] = 10 µM 2-azido-ATP, parent: est. 40
[2] = 20 µM 2-azido-ATP, parent: est. 63
[3] = 50 µM 2-azido-ATP, parent: est. 74
[4] = 100 µM 2-azido-ATP, parent: est. 100

| response [1] [%] | response [2] [%] | response [3] [%] | response [4] [%] | Substance |
| --- | --- | --- | --- | --- |
| 61 | 75 | 92 | 110 | Avena sativa phytochrome A, wild type, full-length recombinant protein with C-terminal strep-tag K411E |
| 91 | 120 | 140 | 150 | Avena sativa phytochrome A, wild type, full-length recombinant protein with C-terminal strep-tag K411R |
| 82 | 120 | 140 | 140 | Avena sativa phytochrome A, wild type, full-length recombinant protein with C-terminal strep-tag T418V |
